Experimental findings from publication PMC2861610 (Molecular Biology of the Cell, 2010) are described below.

As usually defined, the stoichiometry N is a count of units in the complex or per binding partner. As usually defined, the Kd is a measure of binding affinity in units of concentration. Read a high Kd as a looser complex.

The target of assay [1] is Abp1 (endogenous) (Dictyostelium (endogenous in Dictyostelium cells)). The experiment in a line: native gel or EMSA. For orientation: In EMSA bound probe runs differently from free probe, usually more slowly.
Assay [2] concerns the target T1, GST fusion with the GPR loop of MyoK (Dictyostelium, UniProt Q9XXV8 114-272).
T1 sequence (looked up): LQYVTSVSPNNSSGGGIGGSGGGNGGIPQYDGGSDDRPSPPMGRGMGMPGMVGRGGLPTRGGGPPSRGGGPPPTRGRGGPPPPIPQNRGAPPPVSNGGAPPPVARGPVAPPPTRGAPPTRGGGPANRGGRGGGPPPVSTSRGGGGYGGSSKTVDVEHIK
Put plainly: SPR. (SPR reads the build-up and loss of mass on a sensor chip optically.)

The target of the next assay is T2, His-tagged dynamin A (Dictyostelium, UniProt Q94464 1-853).
T2 sequence (looked up): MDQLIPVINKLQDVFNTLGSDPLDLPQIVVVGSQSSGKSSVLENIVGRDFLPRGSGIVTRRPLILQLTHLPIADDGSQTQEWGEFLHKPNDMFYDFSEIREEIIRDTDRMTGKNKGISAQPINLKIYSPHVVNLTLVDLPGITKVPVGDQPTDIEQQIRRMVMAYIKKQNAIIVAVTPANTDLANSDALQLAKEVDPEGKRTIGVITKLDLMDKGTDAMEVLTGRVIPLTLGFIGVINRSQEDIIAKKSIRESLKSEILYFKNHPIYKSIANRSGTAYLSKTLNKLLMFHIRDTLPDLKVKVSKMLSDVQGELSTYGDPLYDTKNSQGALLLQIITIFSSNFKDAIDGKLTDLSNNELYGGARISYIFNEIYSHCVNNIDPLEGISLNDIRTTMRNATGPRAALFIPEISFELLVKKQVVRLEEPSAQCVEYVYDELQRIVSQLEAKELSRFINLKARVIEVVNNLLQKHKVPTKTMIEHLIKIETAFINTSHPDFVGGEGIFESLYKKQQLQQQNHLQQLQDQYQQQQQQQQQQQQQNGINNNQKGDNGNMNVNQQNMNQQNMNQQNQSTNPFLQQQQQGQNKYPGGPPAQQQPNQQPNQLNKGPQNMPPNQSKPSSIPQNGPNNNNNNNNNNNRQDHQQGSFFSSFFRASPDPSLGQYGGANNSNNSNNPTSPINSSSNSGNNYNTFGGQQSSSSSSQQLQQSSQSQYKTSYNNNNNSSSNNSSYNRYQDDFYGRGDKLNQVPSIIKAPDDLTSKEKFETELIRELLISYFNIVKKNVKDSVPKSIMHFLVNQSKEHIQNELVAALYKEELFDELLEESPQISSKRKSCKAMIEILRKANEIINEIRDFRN
The experiment in a line: far-Western, overlay or dot blot.

The next assay has as its target GST-Abp1 (Dictyostelium). Put plainly: SPR.

Take Abp1 (endogenous) (natural protein): the stoichiometry N in assay [1] turned out to be 2.

B1: Profilin I (natural protein, Dictyostelium, UniProt P26199 1-126, looked up)
chain: MSWQQYVDEQLTGAGLSQGAILGANDGGVWAKSSGINITKPEGDGIAALFKNPAEVFAKGALIGGVKYMGIKGDPQSIYGKKGATGCVLVRTGQAIIVGIYDDKVQPGSAALIVEKLGDYLRDNGY
B1 yielded a Kd in assay [2] of approximately 500 nM. The binding result with His-tagged dynamin A is “binds”.

B2: GST fusion with the GPR loop of MyoK (domain or fragment)
chain: LQYVTSVSPNNSSGGGIGGSGGGNGGIPQYDGGSDDRPSPPMGRGMGMPGMVGRGGLPTRGGGPPSRGGGPPPTRGRGGPPPPIPQNRGAPPPVSNGGAPPPVARGPVAPPPTRGAPPTRGGGPANRGGRGGGPPPVSTSRGGGGYGGSSKTVDVEHIK
As to B2, the dissociation constant Kd with GST-Abp1 (Dictyostelium) amounted to 27 nM.

B3: His-tagged dynamin A (natural protein)
chain: MDQLIPVINKLQDVFNTLGSDPLDLPQIVVVGSQSSGKSSVLENIVGRDFLPRGSGIVTRRPLILQLTHLPIADDGSQTQEWGEFLHKPNDMFYDFSEIREEIIRDTDRMTGKNKGISAQPINLKIYSPHVVNLTLVDLPGITKVPVGDQPTDIEQQIRRMVMAYIKKQNAIIVAVTPANTDLANSDALQLAKEVDPEGKRTIGVITKLDLMDKGTDAMEVLTGRVIPLTLGFIGVINRSQEDIIAKKSIRESLKSEILYFKNHPIYKSIANRSGTAYLSKTLNKLLMFHIRDTLPDLKVKVSKMLSDVQGELSTYGDPLYDTKNSQGALLLQIITIFSSNFKDAIDGKLTDLSNNELYGGARISYIFNEIYSHCVNNIDPLEGISLNDIRTTMRNATGPRAALFIPEISFELLVKKQVVRLEEPSAQCVEYVYDELQRIVSQLEAKELSRFINLKARVIEVVNNLLQKHKVPTKTMIEHLIKIETAFINTSHPDFVGGEGIFESLYKKQQLQQQNHLQQLQDQYQQQQQQQQQQQQQNGINNNQKGDNGNMNVNQQNMNQQNMNQQNQSTNPFLQQQQQGQNKYPGGPPAQQQPNQQPNQLNKGPQNMPPNQSKPSSIPQNGPNNNNNNNNNNNRQDHQQGSFFSSFFRASPDPSLGQYGGANNSNNSNNPTSPINSSSNSGNNYNTFGGQQSSSSSSQQLQQSSQSQYKTSYNNNNNSSSNNSSYNRYQDDFYGRGDKLNQVPSIIKAPDDLTSKEKFETELIRELLISYFNIVKKNVKDSVPKSIMHFLVNQSKEHIQNELVAALYKEELFDELLEESPQISSKRKSCKAMIEILRKANEIINEIRDFRN
Molecule B3 yielded a Kd with GST-Abp1 (Dictyostelium) of 2.6 nM.

B4: Profilin II (natural protein, Dictyostelium, UniProt P26200 1-124, looked up)
chain: MTWQAYVDNNLLGAGFASAALLGAADGSVWAHSAGFNVAEGKAITALFQKDGAAFATGIHVAGKKYMAIKSDTRSAYGKLGAGGVVCVKTLTCIIVAVYDDKLQPGAAANIAEKLADYLIDNNC
With B4, the Kd with GST-Abp1 (Dictyostelium) came out at 11 nM; in assay [2], 108 nM. The binding result with His-tagged dynamin A is given as “binds”.
